{"source": "patent US20070292907", "test_system": "bovine 19S complex (PA700)", "data": [{"substance": "USP14-ΔUBL (91-494) (purified recombinant, activation assay)", "values": [{"measurement": "activity toward UbVS (anti-ubiquitin immunoblot)", "result": "showed extremely low activity toward UbYS, both in the absence and presence of the 19S regulatory particle"}]}]}
